Data from the supplement of paper PMC6757056.
± gives the standard deviation of the averaged measurements.

B1: library; a variant is named by its letters at N, in order (parent)
chain: GCUGUCACCGGUGUAUUACCCUAGUGGUCGACCGGUCUGAUGAGUCUNNNNNNAGACGAAACAGC

Tests used:
[1] = variants of: B1; experiment: normalized RNA/DNA level with ligand (relative to sTRSVctl = 100) (log10 (% of sTRSVctl)); ligand: hypoxanthine (xanthine aptamer); higher = less ribozyme self-cleavage, higher mRNA level; conditions: ligand concentration (+) RNA-Seq: 5 mM, HEK293T, reporter: mCherry (pCS4076), ligand present: yes
Summary of the method: (§1)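 HEK293T cells received ligand, where used, 1 h before being transfected with 4 µg per 6-well well of library plasmids encoding reporter-linked ribozyme switches. After 72 h, RNA was extracted with EDTA and sequenced. RNA level was derived from RNA reads per DNA read, normalized to a spiked-in non-cleaving sequence or the top sequences, then scaled and log-transformed. Values were ×100 then log10, the top set was 25 sequences, and the minimum was 100 DNA reads.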

[2] = variants of: B1; experiment: normalized RNA/DNA level without ligand (relative to sTRSVctl = 100) (log10 (% of sTRSVctl)); ligand: hypoxanthine (xanthine aptamer); higher = less ribozyme self-cleavage, higher mRNA level; conditions: HEK293T, reporter: mCherry (pCS4076), ligand present: no
Summary of the method: as §1

Variant	normalized RNA/DNA level with ligand (log10) [1]	normalized RNA/DNA level without ligand (log10) [2]
GCUGUCACCGGUGUAUUACCCUAGUGGUCGACCGGUCUGAUGAGUCUAAUAACAGACGAAACAGC [AAUAAC]	1.919 ± 0.0067	1.81 ± 0.029
GCUGUCACCGGUGUAUUACCCUAGUGGUCGACCGGUCUGAUGAGUCUGAGUUAAGACGAAACAGC [GAGUUA]	1.891 ± 0.0028	1.64 ± 0.056
GCUGUCACCGGUGUAUUACCCUAGUGGUCGACCGGUCUGAUGAGUCUGAGUUCAGACGAAACAGC [GAGUUC]	1.92 ± 0.093	1.86 ± 0.053
GCUGUCACCGGUGUAUUACCCUAGUGGUCGACCGGUCUGAUGAGUCUUAGUCUAGACGAAACAGC [UAGUCU]	1.96 ± 0.028	1.88 ± 0.019
GCUGUCACCGGUGUAUUACCCUAGUGGUCGACCGGUCUGAUGAGUCUCAGUGCAGACGAAACAGC [CAGUGC]	1.96 ± 0.0096	1.814 ± 0.0038
GCUGUCACCGGUGUAUUACCCUAGUGGUCGACCGGUCUGAUGAGUCUUAGUGCAGACGAAACAGC [UAGUGC]	1.95 ± 0.038	1.712 ± 0.014
GCUGUCACCGGUGUAUUACCCUAGUGGUCGACCGGUCUGAUGAGUCUUAUAAAAGACGAAACAGC [UAUAAA]	1.89 ± 0.025	1.77 ± 0.04
GCUGUCACCGGUGUAUUACCCUAGUGGUCGACCGGUCUGAUGAGUCUUAUAACAGACGAAACAGC [UAUAAC]	1.9 ± 0.025	1.829 ± 0.017
GCUGUCACCGGUGUAUUACCCUAGUGGUCGACCGGUCUGAUGAGUCUAAGUUCAGACGAAACAGC [AAGUUC]	1.9 ± 0.052	1.787 ± 0.0052
GCUGUCACCGGUGUAUUACCCUAGUGGUCGACCGGUCUGAUGAGUCUCAUAAGAGACGAAACAGC [CAUAAG]	1.92 ± 0.016	1.71 ± 0.019
GCUGUCACCGGUGUAUUACCCUAGUGGUCGACCGGUCUGAUGAGUCUCAUAACAGACGAAACAGC [CAUAAC]	1.9194 ± 0.0019	1.83 ± 0.056
GCUGUCACCGGUGUAUUACCCUAGUGGUCGACCGGUCUGAUGAGUCUUAUAGGAGACGAAACAGC [UAUAGG]	1.852 ± 0.017	1.43 ± 0.02
GCUGUCACCGGUGUAUUACCCUAGUGGUCGACCGGUCUGAUGAGUCUUAUAGCAGACGAAACAGC [UAUAGC]	1.95 ± 0.009	1.83 ± 0.054
GCUGUCACCGGUGUAUUACCCUAGUGGUCGACCGGUCUGAUGAGUCUUAUAGAAGACGAAACAGC [UAUAGA]	1.892 ± 0.0092	1.63 ± 0.019
GCUGUCACCGGUGUAUUACCCUAGUGGUCGACCGGUCUGAUGAGUCUAAUAUCAGACGAAACAGC [AAUAUC]	1.95 ± 0.055	1.945 ± 0.0067
GCUGUCACCGGUGUAUUACCCUAGUGGUCGACCGGUCUGAUGAGUCUAAGUGCAGACGAAACAGC [AAGUGC]	1.879 ± 0.018	1.53 ± 0.036
GCUGUCACCGGUGUAUUACCCUAGUGGUCGACCGGUCUGAUGAGUCUAAUACUAGACGAAACAGC [AAUACU]	1.8942 ± 0.0003	1.833 ± 0.0049
GCUGUCACCGGUGUAUUACCCUAGUGGUCGACCGGUCUGAUGAGUCUCAUACCAGACGAAACAGC [CAUACC]	1.93 ± 0.023	1.891 ± 0.016
GCUGUCACCGGUGUAUUACCCUAGUGGUCGACCGGUCUGAUGAGUCUCAUACUAGACGAAACAGC [CAUACU]	1.92 ± 0.04	1.83 ± 0.052
GCUGUCACCGGUGUAUUACCCUAGUGGUCGACCGGUCUGAUGAGUCUCAUACAAGACGAAACAGC [CAUACA]	1.9 ± 0.069	1.78 ± 0.051
GCUGUCACCGGUGUAUUACCCUAGUGGUCGACCGGUCUGAUGAGUCUCAUAGGAGACGAAACAGC [CAUAGG]	1.836 ± 0.015	1.43 ± 0.11
